This note sets out measurements from patent US20230340143A1 (published 2023).

Assay [1] has as its target T1, human CD39 expressed at the cell surface (human, UniProt P49961 1-510).
T1 construct: On CHO transfectants, HEK-293T transfectants or endogenous on Ramos cells; also called huCD39; CHO-huCD39
T1 sequence: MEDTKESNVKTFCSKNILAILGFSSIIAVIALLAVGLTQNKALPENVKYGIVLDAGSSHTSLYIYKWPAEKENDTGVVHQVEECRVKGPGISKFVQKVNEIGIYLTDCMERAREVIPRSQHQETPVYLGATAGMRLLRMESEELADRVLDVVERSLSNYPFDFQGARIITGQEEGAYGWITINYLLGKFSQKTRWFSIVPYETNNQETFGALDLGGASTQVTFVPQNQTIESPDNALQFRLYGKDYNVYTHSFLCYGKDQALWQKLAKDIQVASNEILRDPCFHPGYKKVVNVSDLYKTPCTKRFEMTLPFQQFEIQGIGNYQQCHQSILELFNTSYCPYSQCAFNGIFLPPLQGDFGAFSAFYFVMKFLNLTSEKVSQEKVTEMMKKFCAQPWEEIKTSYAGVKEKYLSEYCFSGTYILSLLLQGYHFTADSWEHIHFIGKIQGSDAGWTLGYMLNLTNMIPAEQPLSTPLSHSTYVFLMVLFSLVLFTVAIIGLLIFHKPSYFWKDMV
Kind of assay: flow cytometry screen on CHO expressing huCD39 against wild type CHO. How it is done: In initial immunization protocols, the primary screen involved testing supernatant (SN) of growing clones by flow cytometry using wild type CHO and CHO expressing huCD39 cell lines. Cells were stained with 0.1 µM and 0.005 µM CFSE, respectively. […] For antibodies that bound huCD39, supernatants were then screened for inhibition of the enzymatic activity of soluble CD39 using the screening assay developed and described above (Methods).
In view of the absence of antibodies able to inhibit soluble CD39, a further immunization was carried out with a screening protocol designed to favor the generation of antibodies that bind the active site of CD39 as identified by the epitope of antibody BY40. Briefly, the primary screen involved testing supernatant (SN) of growing clones by flow cytometry using wild type CHO and CHO expressing huCD39 cell lines, as in the preceding immunizations, followed by screening for loss of binding Hek-293T cells expressing CD39 mutant 5, compared to wild-type CD39, as shown in Table 1. Mutant 5 has substitutions at residues Q96, N99, E143 and R147.

The target of assay [2] is T2, CD39 mutant 5 (human, UniProt P49961 1-510).
T2 construct: Expressed on transfected HEK-293T cells; also called M5
T2 chain: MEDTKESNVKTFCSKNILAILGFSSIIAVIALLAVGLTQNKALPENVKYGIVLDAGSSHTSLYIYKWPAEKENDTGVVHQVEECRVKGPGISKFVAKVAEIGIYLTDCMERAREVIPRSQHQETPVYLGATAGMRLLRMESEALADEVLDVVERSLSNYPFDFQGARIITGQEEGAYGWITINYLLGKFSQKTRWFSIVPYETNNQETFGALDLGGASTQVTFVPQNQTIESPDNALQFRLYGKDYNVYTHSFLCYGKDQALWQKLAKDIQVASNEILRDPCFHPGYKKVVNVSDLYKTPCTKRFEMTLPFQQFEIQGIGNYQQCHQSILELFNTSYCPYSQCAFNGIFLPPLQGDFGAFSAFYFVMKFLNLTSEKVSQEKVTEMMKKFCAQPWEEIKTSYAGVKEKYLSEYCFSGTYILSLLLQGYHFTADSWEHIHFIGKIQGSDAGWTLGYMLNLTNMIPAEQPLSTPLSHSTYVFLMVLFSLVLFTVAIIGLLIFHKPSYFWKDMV
Kind of assay: flow cytometry screen on HEK-293T cells expressing CD39 mutant 5.

Assay [3] has as its target T3, Human CD39-L1 (human, UniProt Q9Y5L3 1-495).
T3 construct: Recombinant protein coated in ELISA; also called NTPDase2; ENTPD2
T3 sequence: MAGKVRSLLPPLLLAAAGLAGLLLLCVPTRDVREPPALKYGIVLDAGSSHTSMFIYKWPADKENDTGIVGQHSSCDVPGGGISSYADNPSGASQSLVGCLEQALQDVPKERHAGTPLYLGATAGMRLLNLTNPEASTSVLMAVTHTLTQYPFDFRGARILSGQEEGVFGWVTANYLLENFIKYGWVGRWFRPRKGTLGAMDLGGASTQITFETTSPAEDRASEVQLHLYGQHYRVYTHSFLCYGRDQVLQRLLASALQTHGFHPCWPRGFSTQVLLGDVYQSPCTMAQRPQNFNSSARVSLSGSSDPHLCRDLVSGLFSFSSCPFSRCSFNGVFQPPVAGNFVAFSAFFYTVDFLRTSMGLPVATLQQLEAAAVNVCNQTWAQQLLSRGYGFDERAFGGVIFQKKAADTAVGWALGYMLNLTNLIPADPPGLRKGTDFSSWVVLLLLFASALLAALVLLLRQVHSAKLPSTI
As to the kind of experiment: ELISA, recombinant isoform coated. The protocol:
Wells were washed in TBS Tween 20, and further saturated 2H at RT in TBS Blocking buffer. Dose range concentration of primary antibody was incubated in TBS blocking buffer for 2 h at RT. Wells were washed in TBS Tween 20. […] Optical density was measured on Enspire™ at OD=450.
In general terms: In an ELISA, binding on a coated surface is turned into a signal by an enzyme label.

The target of assay [4] is T4, CD39 mutant 19 (human, UniProt P49961 1-510).
T4 construct: Expressed on transfected HEK-293T cells; also called M19
T4 chain: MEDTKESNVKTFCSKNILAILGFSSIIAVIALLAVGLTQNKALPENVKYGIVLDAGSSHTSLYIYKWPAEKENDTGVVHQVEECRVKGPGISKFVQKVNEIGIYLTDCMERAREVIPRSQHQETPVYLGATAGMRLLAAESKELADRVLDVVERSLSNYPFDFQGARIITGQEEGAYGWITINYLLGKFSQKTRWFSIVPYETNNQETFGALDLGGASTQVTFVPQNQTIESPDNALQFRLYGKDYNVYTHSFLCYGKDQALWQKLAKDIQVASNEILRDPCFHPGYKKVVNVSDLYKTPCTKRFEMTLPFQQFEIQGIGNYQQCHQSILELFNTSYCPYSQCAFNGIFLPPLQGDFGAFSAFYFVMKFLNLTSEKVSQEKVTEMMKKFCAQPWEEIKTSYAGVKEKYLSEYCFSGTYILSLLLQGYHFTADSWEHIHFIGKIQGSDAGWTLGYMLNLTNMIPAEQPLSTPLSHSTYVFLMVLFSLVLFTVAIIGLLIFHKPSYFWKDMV
Kind of assay: flow cytometry on HEK-293T cells expressing mutant 19. How it is done:
(§1) In order to define the epitopes of the further anti-CD39 antibodies of Example 5, they were tested for loss of binding to the panel of CD39 mutants as described in Example 1 and Table 1. Mutants were transfected in Hek-293T cells, as shown in the table 1, using numbering of SEQ ID NO: 1.Dose-ranges of test antibodies (10 - 2.5 - 0.625 - 0.1563 - 0.0391 - 0.0098 - 0.0024 - 0.0006 µg/ml) are tested on the 20 generated mutants by flow cytometry.
Background: In flow cytometry, cells or beads pass a laser one at a time.

The target in assay [5] is T2, CD39 mutant 5. As to the kind of experiment: flow cytometry on HEK-293T cells expressing mutant 5. The protocol:
as §1

B1: antibody I-395 (antibody, V domains shown)
VH: EVQLQQSGPELVKPGASVRMSCKASGYTFTDYNMHWVKKNHGKGLEWIGYINPNNGGTTYNQKFKGKATLTVNTSSKTAYMELRSLTSEDSAVYYCTRGGTRFASWGQGTLVTVSA
VL: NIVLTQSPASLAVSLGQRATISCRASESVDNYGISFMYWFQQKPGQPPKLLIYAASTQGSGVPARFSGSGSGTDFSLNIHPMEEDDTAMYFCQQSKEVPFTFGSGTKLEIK
notes: Hybridoma antibody purified on protein A
As for B1, the binding result in assay [1] is “binds”.

B2: antibody I-394 (antibody, V domains shown)
VH: EVQLQQSGPELVKPGASVKMSCKASGYTFTDYNMHWVKQSHGRTLEWIGYIVPLNGGSTFNQKFKGRATLTVNTSSRTAYMELRSLTSEDSAAYYCARGGTRFAYWGQGTLVTVSA
VL: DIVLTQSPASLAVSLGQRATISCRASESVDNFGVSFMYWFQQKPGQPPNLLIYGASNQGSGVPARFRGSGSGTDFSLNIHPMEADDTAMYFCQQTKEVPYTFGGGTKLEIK
notes: Mouse hybridoma antibody; also produced with human IgG1 constant domains carrying L234A/L235E/G237A/A330S/P331S (Kabat EU) and a huCk constant domain
B2: the binding result in assay [2] is “binds”; in assay [3] it was “no binding”.

B3: antibody I-399 (antibody, V domains shown)
VH: PVQLQQPGAEVVMPGASVKLSCKASGYTFTSFWMNWMRQRPGQGLEWIGEIDPSDFYTNSNQRFKGKATLTVDKSSSTAYMQLSSLTSEDSAVYFCARGDFGWYFDVWGTGTSVTVSS
VL: EIVLTQSPTTMTSSPGEKITFTCSASSSINSNYLHWYQQKPGFSPKLLIYRTSNLASGVPTRFSGSGSGTSYSLTIGTMEAEDVATYYCQQGSSLPRTFGGGTKLEIK
notes: as for B1
Turning to B3, the binding result in assay [1] is reported as “binds”.

B4: antibody I-396 (antibody, V domains shown)
VH: EVQLQQSGAELVKPGASVKLSCIVSGFNIKDTYINWVKQRPEQGLEWIGRIDPANGNTKYDPKFQGKATMTSDTSSNTAYLHLSSLTSDDSAVYYCARWGYDDEEADYFDSWGQGTTLTVSS
VL: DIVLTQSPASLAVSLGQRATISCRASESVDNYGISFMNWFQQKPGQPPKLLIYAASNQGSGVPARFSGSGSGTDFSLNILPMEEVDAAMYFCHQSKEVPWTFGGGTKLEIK
notes: as for B1
Turning to B4, the binding result in assay [4], in assay [1] and in assay [5] was “binds” in each case.
